Measured values as given in patent US20090142806A1 (Pfizer, published 2009).

Assays:
human IL-17R-Ig = target: T1, human IL-17R-Ig (human); assay: ELISA, IL-17R-Ig coated at 1.5 µg/ml, serial dilutions of biotin-conjugated IL-17F
T1 construct: also called IL-17R-IgG; IL-17R-Ig fusion protein
Procedure: (§1) After washing, saturating concentrations of avidin-horseradish peroxidase (HRP) were added, and plates were incubated for an additional 1 h at RT. Unbound avidin-HRP was washed using PBS/1% BSA, and the ELISA was developed using TBM.

human IL-17RC-Ig = target: T2, human IL-17RC-Ig (human); assay: ELISA, IL-17RC-Ig coated at 1.5 µg/ml, serial dilutions of biotin-conjugated IL-17F
T2 construct: also called IL-17RC-IgG; IL-17RC-Ig fusion protein
T2 sequence (chain, as listed by the source limits assumed): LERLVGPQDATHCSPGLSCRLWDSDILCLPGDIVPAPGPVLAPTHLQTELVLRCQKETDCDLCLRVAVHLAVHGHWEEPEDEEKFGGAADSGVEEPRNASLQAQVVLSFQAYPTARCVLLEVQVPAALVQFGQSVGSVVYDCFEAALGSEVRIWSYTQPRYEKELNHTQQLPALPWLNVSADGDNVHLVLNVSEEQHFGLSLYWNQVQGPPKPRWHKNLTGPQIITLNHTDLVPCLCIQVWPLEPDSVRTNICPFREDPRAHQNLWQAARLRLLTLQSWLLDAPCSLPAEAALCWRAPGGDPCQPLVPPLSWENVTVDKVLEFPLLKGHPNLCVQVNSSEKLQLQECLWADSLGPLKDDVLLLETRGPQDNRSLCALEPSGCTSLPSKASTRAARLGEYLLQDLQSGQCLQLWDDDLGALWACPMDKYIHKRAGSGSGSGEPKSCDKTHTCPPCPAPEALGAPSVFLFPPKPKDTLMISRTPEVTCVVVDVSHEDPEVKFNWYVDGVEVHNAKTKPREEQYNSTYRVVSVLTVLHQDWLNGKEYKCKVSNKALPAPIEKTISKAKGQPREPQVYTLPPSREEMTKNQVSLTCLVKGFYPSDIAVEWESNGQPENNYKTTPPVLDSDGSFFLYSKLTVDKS
Procedure: as §1

T1 sequence (chain, as listed by the source limits assumed): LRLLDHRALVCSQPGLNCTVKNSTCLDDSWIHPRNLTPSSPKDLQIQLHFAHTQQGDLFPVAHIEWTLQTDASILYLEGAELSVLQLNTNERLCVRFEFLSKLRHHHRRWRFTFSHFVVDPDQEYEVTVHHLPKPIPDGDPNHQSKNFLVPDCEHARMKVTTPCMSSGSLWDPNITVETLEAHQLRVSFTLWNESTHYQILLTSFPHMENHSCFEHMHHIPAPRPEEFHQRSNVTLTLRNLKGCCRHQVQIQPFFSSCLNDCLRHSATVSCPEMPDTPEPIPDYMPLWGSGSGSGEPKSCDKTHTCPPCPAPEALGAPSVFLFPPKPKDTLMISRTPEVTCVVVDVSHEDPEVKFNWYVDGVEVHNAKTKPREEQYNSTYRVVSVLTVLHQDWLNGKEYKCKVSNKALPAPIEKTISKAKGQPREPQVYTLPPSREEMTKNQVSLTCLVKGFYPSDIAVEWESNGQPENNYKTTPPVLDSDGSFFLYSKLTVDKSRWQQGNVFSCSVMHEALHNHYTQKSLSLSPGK

B1: human IL-17F (IL-17F homodimer) (ligand)
chain: RKIPKVGHTFFQKPESCPPVPGGSMKLDIGIINENQRVSMSRNIESRSTSPWNYTVTWDPNRYPSEVVQAQCRNLGCINAQGKEDISMNSVPIQQETLVVRRKHQGCSVSFQLEKVLVTVGCTCVTPVIHHVQ
modifications: biotin-conjugated in the receptor-binding and inhibition ELISAs (sites not given)
notes: Used as purified protein, as recombinant conditioned media (293, COS) and as natural protein from T cell conditioned media; also called IL-17F/F; interleukin-17F
- EC50 (human IL-17R-Ig): 1.23 µg/mL
- EC50 (human IL-17RC-Ig): 15 µg/mL
